For experiment [1], the target named is T1, human ENO1 protein (human, UniProt P06733 1-434).
T1 construct: also called ENOl; alpha-enolase
In words: ENO1 binding ELISA. A general note: ELISA stands for enzyme-linked immunosorbent assay.

The target in experiment [2] is T1, human ENO1 protein. In words: SPR, BIAcore 2000, ENO1 injected, 25 degree C, 1:1 Langmuir. On the technique in general: SPR reads the build-up and loss of mass on a sensor chip optically.

T1 sequence (P06733 whole entry): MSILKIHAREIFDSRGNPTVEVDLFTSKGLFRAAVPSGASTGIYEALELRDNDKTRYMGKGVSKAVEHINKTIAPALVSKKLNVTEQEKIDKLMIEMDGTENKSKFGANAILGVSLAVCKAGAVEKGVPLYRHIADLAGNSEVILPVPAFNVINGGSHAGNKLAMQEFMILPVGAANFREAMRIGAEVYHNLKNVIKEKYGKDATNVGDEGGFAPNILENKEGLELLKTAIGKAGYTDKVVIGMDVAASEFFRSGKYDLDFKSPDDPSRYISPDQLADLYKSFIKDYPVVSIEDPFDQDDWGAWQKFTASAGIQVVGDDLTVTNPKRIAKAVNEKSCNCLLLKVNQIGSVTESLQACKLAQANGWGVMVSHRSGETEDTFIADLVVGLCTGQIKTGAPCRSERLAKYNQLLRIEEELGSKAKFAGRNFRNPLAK

B1: hum EN10 mAb IMGT (antibody, IgG1, V domains shown)
VH: QVQLVQSGAEVKKPGASVKVSCKASGYTFTSCVMNWVRQAPGQGLEWMGYINPYNDGTKYNEKFKGRVTMTTDTSTSTAYMELRSLRSDDTAVYYCAREGFYYGNFDNWGQGTLVTVSS
VL: DIQMTQSPSSLSASVGDRVTITCRASENIYSYLTWYQQKPGKAPKLLIYNAKTLPEGVPSRFSGSGSGTDFTLTISSLQPEDFATYYCQHHYGTPYTFGQGTKLEIKR
notes: also called humanized EN10 mAb IMGT; Hum EN10 IMGT
As usually defined, the Kd is the free concentration of one partner at which half of the binding sites on the other are occupied at equilibrium, for simple one-to-one binding. Read a low Kd as a tighter complex. In the case of B1, the Kd came out at 0.0365 nM with human ENO1 protein [1] and 0.219 nM with human ENO1 protein [2].

B2: hum EN10 mAb 4D5 (antibody, IgG1, V domains shown)
VH: EVQLVESGGGLVQPGGSLRLSCAASGYTFTSCVMNWVRQAPGKGLEWVAYINPYNDGTKYNEKFKGRFTISRDDSKNTLYLQMNSLRAEDTAVYYCAREGFYYGNFDNWGQGTLVTVSS
VL: B1 VL
notes: also called humanized EN10 mAb 4D5; hum ENO10mAb 4D5
The molecule B2 had a Kd with human ENO1 protein [2] of 0.5 nM.

These data come from patent EP3240566B1 (Development Center for Biotechnology, dated 2020).
